This is an account of results in patent US12459997B2, “Compounds and methods targeting interleukin-19” (Eli Lilly and Company, priority 2018, dated 2025).

Series [1] deals with T1, human IL-19 / human IL-20R beta Fc-fusion protein (Homo sapiens, UniProt Q9UHD0).
T1 sequence (Q9UHD0 25-177): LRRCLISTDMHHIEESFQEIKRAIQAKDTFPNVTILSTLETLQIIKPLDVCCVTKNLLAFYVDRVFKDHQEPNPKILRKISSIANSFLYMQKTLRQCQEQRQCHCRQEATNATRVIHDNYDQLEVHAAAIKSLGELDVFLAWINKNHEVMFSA
In words: BLI in vitro neutralization: IL-19 captured by antibody, then incubated with IL-20R beta Fc. As to conditions: block of IL-19 binding to soluble receptor. An excerpt: Alternatively, a biophysical assay such as bio-layer interferometry (BLI) may be used for assessing neutralization of IL-19 by antibodies of the present invention. Binding between a ligand immobilized on the biosensor tip surface and an analyte in solution produces an increase in optical thickness at the biosensor tip, which results in a wavelength shift (expressed in nm). According to such assay, the IL-19 receptor (i.e., […]) is expressed in a membrane-free manner (such as with an Fc-fusion e.g. IL20Rbeta Fc chimera protein from R&D Systems catalog 1788-IR-050). […] The immobilized antibodies are then incubated with recombinant human IL-19 protein diluted to 100 nM using HBS-EP+ running buffer (GE Healthcare, 10 mM Hepes pH7.4+150 mM NaCl+3 mM EDTA+0.05% surfactant P20) for 240-300 secs. The human IL-19, after binding to the anti-IL-19 antibody, is assessed by incubation with human IL-20R beta Fc-fusion protein for 240-300 secs. The ability of the antibody to block or neutralize binding of the IL-19 ligand to the soluble receptor is observed as a minimal (<0.025 nm) increase in the wavelength during this step of the assay.

For series [2], the target named is T2, recombinant human IL-19 (Homo sapiens, UniProt Q9UHD0).
T2 sequence (Q9UHD0 25-177): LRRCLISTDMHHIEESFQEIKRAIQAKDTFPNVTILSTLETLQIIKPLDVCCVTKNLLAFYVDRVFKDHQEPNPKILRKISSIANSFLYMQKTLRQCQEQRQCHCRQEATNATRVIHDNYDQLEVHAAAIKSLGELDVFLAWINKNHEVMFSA
The experiment in a line: PathHunter eXpress IL20RA/IL20RB dimerization assay (cell-based neutralization). As to conditions: eight experiments. The arrangement: host or cells: PathHunter eXpress IL20RA/IL20RB cells (DiscoverX 93-1027E3) carry the receptor partners. From the text: PathHunter® eXpress IL20RA/IL20RB dimerization assay (DiscoverX product code 93-1027E3) is used to assess ability of exemplified antibodies to prevent binding of human IL-19 recombinant protein in a cell-based assay format. The assay detects ligand induced dimerization of two subunits of a receptor-dimer pair. The cells have been engineered to co-express one receptor subunit fused to enzyme donor and a second dimer partner fused to enzyme acceptor. Binding of an agonist to one receptor subunit induces it to interact with its dimer partner, forcing complementation of the two enzyme fragments resulting in the formation of a functional enzyme that hydrolizes a substrate to generate a chemiluminescent signal. […] Human IL-19 recombinant protein with and without exemplified antibodies mixture is then incubated with cells overnight at 37° C./5% CO2. Substrate buffer is added to cells and incubated at room temperature for 1 hour in the dark before luminescent detection.

Series [3] addresses T2, recombinant human IL-19. In words: HDX-MS epitope mapping. The series is classed as binding. As to conditions: IL-19:antibody molar ratio 1:1.2.
Method: Briefly, HDX-MS is performed on a Waters nanoACQUITY system with HDX technology, including a LEAP HDX robotic liquid handling system and mass analysis is performed on a Waters Xevo G2-Tof mass spectrometer. […] The deuterium exchange experiment is initiated adding 55 uL of D2O buffer containing 0.1×PBS to 5 ul of human IL-19 or the human IL-19/antibody complex at 15° C. for various amounts of time (0 s, 10 s, 1 min, 10 min, 60 min, 120/240 min). The reaction is quenched using equal volume of was 0.32M TCEP, 0.1M phosphate pH 2.5 for two minutes at 1° C. 50 μL of the quenched reaction is injected on to an on-line pepsin column (Waters BEH Enzymate) at 14° C., using 0.2% formic acid in water as the mobile phase at a flow rate of 100 μL/min for 4 min. The resulting peptic peptides are then separated on a C18 column (Waters, Acquity UPLC BEH C18, 1.7 m, 1.0 mm×50 mm) fit with a Vanguard trap column using a 3 to 85% acetonitrile (containing 0.2% formic acid) gradient over 10 min at a flow rate of 50 L/min. The separated peptides are directed into a Waters Xevo G2 time-of-flight (qTOF) mass spectrometer. […] The relative deuterium incorporation for each peptide is determined by processing the MS data for deuterated samples along with the non-deuterated control in DynamX.
Series [4] addresses T2, recombinant human IL-19. In words: Bio-layer interferometry (BLI) binding kinetics and affinity (Octet Red96). As to conditions: 25° C.; 1:1 binding model. The method, then:
Bio-layer interferometry (BLI) assay, measured with a Octet Red96® instrument available from ForteBio (using HBS-EP+ running buffer (GE Healthcare, 10 mM Hepes pH7.4+150 mM NaCl+3 mM EDTA+0.05% surfactant P20) at 25° C.), is used to measure binding of the exemplified IL-19 antibodies of the present invention to recombinant human IL-19 (having the amino acid sequence set for in SEQ ID NO: 1).
Except as noted, all reagents and materials are from ForteBio (Freemont, Calif.). An AMQ biosensor is used to immobilize antibody of interest for analysis. […] Recombinant human IL-19 is prepared to concentrations of 270, 90, 30, 10, 3.33, 1.11, 0.370, and 0 (blank) nM by dilution into running buffer. Each analysis consists of: (1) capturing antibody samples on biosensors for 300 secs; (2) establishing a baseline by incubating antibody loaded biosensors with running buffer for 60 secs; (3) incubating antibody loaded biosensors with serially diluted recombinant human IL-19 for 300 secs to monitor association phase; (4) return of biosensor to running buffer to monitor dissociation phase.
Binding data is processed using standard double-referencing and fit to a 1:1 binding model using Data Analysis v9.0 evaluation software, to determine the association rate (kon, M^−1 s^−1 units), dissociation rate (koff, s^−1 units), and Rmax (nm units). The equilibrium dissociation constant (KD) was calculated from the relationship KD=koff/kon, and is in molar units.
(In general: Biolayer interferometry detects binding as a change in optical thickness at a sensor tip.)

B1: M_1: murine-derived IL-19 antibody; LC SEQ ID NO: 2, HC SEQ ID NO: 6 (antibody)
heavy: EVQLQQSGPVLVKPGASVKMSCKASGYKFTDYFVGWVKQSHGKSLEWIGYVDPENGYTRCNQKFKGKATLTVDKSSSTAYMELNSLTSEDSAVYYCARYDYDWAWFTNWGQGTLVTVSAAKTTPPSVYPLAPGSAAQTNSMVTLGCLVKGYFPEPVTVTWNSGSLSSGVHTFPAVLQSDLYTLSSSVTVPSSTWPSETVTCNVAHPASSTKVDKKIVPRDCGCKPCICTVPEVSSVFIFPPKPKDVLTITLTPKVTCVVVDISKDDPEVQFSWFVDDVEVHTAQTQPREEQFNSTFRSVSELPIMHQDWLNGKEFKCRVNSAAFPAPIEKTISKTKGRPKAPQVYTIPPPKEQMAKDKVSLTCMITDFFPEDITVEWQWNGQPAENYKNTQPIMDTDGSYFVYSKLNVQKSNWEAGNTFTCSVLHEGLHNHHTEKSLSHSPGK
light: DIVMTQSPSSLAMSVGQKVTMSCKSSQSLLSSYNQKNYLAWYQQKPGQSPKLLVYFASTRPPGVPDRFIGSGSGSDFTLTISSVQAEDLADYFCQQHERLPITFGAGTKLELKRADAAPTVSIFPPSSEQLTSGGASVVCFLNNFYPKDINVKWKIDGSERQNGVLNSWTDQDSKDSTYSMSSTLTLTKDEYERHNSYTCEATHKTSTSPIVKSFNRNEC
Take B1: the Neutralization result in series [1] is listed as “Yes (minimal (<0.025 nm) increase in the wavelength)”. The “% inhibition +/− SEM (maximum signal inhibition percentage)” value with recombinant human IL-19 [2] was 98.59 +/− 0.42%.

B2: R_39: rabbit-derived IL-19 antibody; LC SEQ ID NO: 310, HC SEQ ID NO: 311 (antibody)
heavy: QEQLKESGGGLVQPGGSLKLSCKASGFDLSSYGVSWVRQAPGKGLEWIGYIDPVFGSTYYANWVNGRFTISSDNAQNTLYLQLNSLTAADTATYFCARGSGYVYYGYTYDLWGPGTLVTVSSGQPKAPSVFPLAPCCGDTPSSTVTLGCLVKGYLPEPVTVTWNSGTLTNGVRTFPSVRQSSGLYSLSSVVSVTSSSQPVTCNVAHPATNTKVDKTVAPSTCSKPTCPPPELLGGPSVFIFPPKPKDTLMISRTPEVTCVVVDVSQDDPEVQFTWYINNEQVRTARPPLREQQFNSTIRVVSTLPIAHQDWLRGKEFKCKVHNKALPAPIEKTISKARGQPLEPKVYTMGPPREELSSRSVSLTCMINGFYPSDISVEWEKNGKAEDNYKTTPAVLDSDGSYFLYSKLSVPTSEWQRGDVFTCSVMHEALHNHYTQKSISRSPGK
light: DIVMTQTPASVEAAVGGTVTIKCQASQSIYRYLSWYQQKPGQRPKLLIYGASNLASGVSSRFKGSGSGTEFTLTISDLECADAATYYCQSYYYSSSSGYGNVFGGGTEVVVKGDPVAPTVLIFPPAADQVATGTVTIVCVANKYFPDVTVTWEVDGTTQTTGIENSKTPQNSADCTYNLSSTLTLTSTQYNSHKEYTCKVTQGTTSVVQSFNRGDC
What is called kon is a measure of how fast the partners come together. With B2, the Neutralization result in series [1] is “Yes (minimal (<0.025 nm) increase in the wavelength)”. In the series with recombinant human IL-19 [3], the “residues of SEQ ID NO. 1 with decreased deuterium uptake in complex with antibody (epitope region)” value was “residues 42-60 ([…]), 90-107 ([…]), and 149-160 ([…])”. The kon in the series with recombinant human IL-19 [4] stood at 206000 M⁻¹ s⁻¹.
